Results taken from the supplement of paper PMC9732359.
± gives the uncertainty stated by the source.

Test: protein stability index of a GFP-peptide fusion (yeast GPS) (PSI 1-4); higher = more stable; sorted into four equal gates, so the index is relative within each strain
In short: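 Plasmids isolated from each sorting gate were PCR-amplified and Illumina-sequenced, and barcodes assigned the reads to strains. The gates, four of equal size, were set by GFP/Cherry fluorescence ratio on mid-log cultures in leucine-free medium. These cultures were yeast carrying a pooled library of tiled 17-residue yeast protein peptides fused downstream of GFP on a plasmid that also expresses Cherry. The protein stability index is the sum of every gate's read frequency times its gate number.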

| Sequence | protein stability index (doa10∆) | protein stability index (pdr5∆) | protein stability index (san1∆) | protein stability index (ubr1∆) |
| --- | --- | --- | --- | --- |
| NSINKTTVPFKESDDPS [POP1] | 2.5 ± 0.067 | 2.93 ± 0.06 | 2.71 ± 0.072 | 2.36 ± 0.065 |
| NSIRAREVENSVSLLNS [SMC1] | 2.55 ± 0.064 | 2.78 ± 0.06 | 3.09 ± 0.071 | 3.08 ± 0.069 |
| NSMEYTGKITKMFQDIR [CDC53] | 3.06 ± 0.27 | 3.41 ± 0.14 | 2.96 ± 0.085 | 3.28 ± 0.078 |
| NSNQQQNPKLFQTIFSK [SIN4] | 1.98 ± 0.093 | 2.19 ± 0.069 | 3.11 ± 0.1 | 2.42 ± 0.082 |
| NSNTNLNSLSPQAILAK [SWI1] | 2.28 ± 0.046 | 1.93 ± 0.033 | 1.92 ± 0.054 | 2.02 ± 0.03 |
| NSQVFGVARIYASFNDT [RPS14B] | 2.54 ± 0.08 | 2.45 ± 0.065 | 2.5 ± 0.048 | 2.67 ± 0.079 |
| NSSESDEEESNDEKQKA [RPN13] | 3.32 ± 0.17 | 2.43 ± 0.21 |  | 3.41 ± 0.088 |
| NSTHLLPLQPIEIDYTV [SNF12] | 2.34 ± 0.044 | 2.27 ± 0.044 | 2.27 ± 0.051 | 2.21 ± 0.036 |
| NSVRNSLLLAHFFSKSC [NUT1] | 1.74 ± 0.05 | 1.28 ± 0.041 | 1.19 ± 0.078 | 1.18 ± 0.035 |
| NTEEKAELQSNLQVELL [YGL100W/SEH1] | 3.06 ± 0.064 | 3.02 ± 0.087 | 1.96 ± 0.13 | 2.74 ± 0.083 |
| NTFGSSSLFNNSTNSNT [YJL041W/NSP1] | 2.42 ± 0.06 | 2.44 ± 0.053 | 3.12 ± 0.041 | 2.5 ± 0.05 |
| NTFNYDVKISNDFFDNG [RPN4] | 1.94 ± 0.08 | 2.3 ± 0.07 | 2.52 ± 0.091 | 2.48 ± 0.072 |
| NTGDGSISTYKDILNLA [ECM29] | 3.03 ± 0.083 | 2.97 ± 0.11 | 3.04 ± 0.081 | 3.09 ± 0.079 |
| NTGLLNKANIQALIHGL [RPN11] | 3.02 ± 0.14 | 2.88 ± 0.15 | 2.09 ± 0.28 | 2.67 ± 0.16 |
| NTHLGARNVQVHQEPYV [RPS0A] | 2.06 ± 0.087 | 2.25 ± 0.053 | 2.59 ± 0.09 | 2.11 ± 0.058 |
| NTIIRDGSKMLKRADYT [RPN14] | 2.87 ± 0.096 | 2.36 ± 0.093 | 3.65 ± 0.039 | 2.2 ± 0.055 |
| NTLGKGQNCLDIDGIMD [SNU114] | 3.3 ± 0.23 | 3.15 ± 0.1 | 3.02 ± 0.12 | 3.2 ± 0.11 |
| NTLRKCYPQFAERDSQG [UBP6] | 2.92 ± 0.17 | 2.65 ± 0.15 | 2.79 ± 0.15 | 2.78 ± 0.12 |
| NTNLMNGVNVQIDQLNR [GRR1] | 2.85 ± 0.052 | 3.06 ± 0.061 | 2.88 ± 0.049 | 2.99 ± 0.05 |
| NTPLVGAAFKVISNLVP [YJL039C/NUP192] | 1.96 ± 0.081 | 2.08 ± 0.095 | 2.73 ± 0.16 | 2.47 ± 0.1 |

| Sequence | protein stability index (doa10∆) | protein stability index (pdr5∆) | protein stability index (san1∆) | protein stability index (ubr1∆) |
| --- | --- | --- | --- | --- |
| NTSAATVHTATSSSIIL [SSN2] | 2.41 ± 0.053 | 2.761 ± 0.026 | 2.61 ± 0.045 | 2.65 ± 0.038 |
| NTTDPLGHTKAALGEVA [SIR2] | 2.51 ± 0.065 | 2.69 ± 0.078 | 2.67 ± 0.088 | 3.08 ± 0.069 |
| NTTKPAFGGLNFGGGNN [YJL041W/NSP1] | 2.71 ± 0.054 | 3.2 ± 0.061 | 3.01 ± 0.045 | 3.13 ± 0.068 |
| NTVVGISGDISDMQHIE [PRE4] | 2.94 ± 0.12 | 3.29 ± 0.12 | 3.15 ± 0.17 | 2.82 ± 0.12 |
| NVDQTKTQCPNYDTCGG [RPC11] | 3.48 ± 0.13 | 3.15 ± 0.18 | 3.06 ± 0.08 | 3.21 ± 0.093 |
| NVEKPSSKPAFNLISNA [YLR335W/NUP2] | 3.1 ± 0.056 | 3.15 ± 0.066 | 3.14 ± 0.048 | 3.16 ± 0.044 |
| NVLLLDSNGDFNEDQLF [RRP46] | 3.17 ± 0.064 | 3.04 ± 0.054 | 3.32 ± 0.055 | 3.17 ± 0.044 |
| NVMLEKIKDNKEKIKNN [RPT5] | 2.78 ± 0.12 | 2.94 ± 0.087 | 2.55 ± 0.099 | 2.72 ± 0.094 |
| NVNSRNQLVEPNRIKLS [SRB5] | 2.29 ± 0.061 | 2.43 ± 0.052 | 2.48 ± 0.059 | 2.19 ± 0.036 |
| NVPWPQNSYADKVTSQA [RPP1] | 2.04 ± 0.094 | 2.19 ± 0.15 | 1.83 ± 0.1 | 2.25 ± 0.096 |
| NVSNTFNKTTNIDINNE [YJL041W/NSP1] | 3.1 ± 0.068 | 3.28 ± 0.065 | 2.68 ± 0.073 | 3.08 ± 0.051 |
| NVTSFMPFWKFFMKNFP [SRB8] | 1.47 ± 0.053 | 1.63 ± 0.046 | 1.43 ± 0.068 | 1.35 ± 0.041 |
| NVVEVMDMNEIEDKENS [RPT5] | 3.02 ± 0.087 | 2.58 ± 0.066 | 2.26 ± 0.067 | 2.71 ± 0.059 |
| NWRGREHWKVRNFKKAN [BRN1] | 3.43 ± 0.12 | 3.36 ± 0.12 | 3.52 ± 0.075 | 3.49 ± 0.1 |
| NWSKEDLQKLLKGIQEF [SWI3] | 3.27 ± 0.068 | 3.07 ± 0.057 | 3.09 ± 0.05 | 3.33 ± 0.055 |
| NYASVYPVVEVERGRVG [RRP43] | 3.48 ± 0.14 | 3.57 ± 0.11 | 3.43 ± 0.093 | 3.42 ± 0.056 |
| NYEDVGRFLRVPKEGLF [BRR2] | 3.42 ± 0.076 | 3.5 ± 0.11 | 3.42 ± 0.078 | 3.49 ± 0.064 |
| NYEIVFDTVSNKLFTEP [YMR129W/POM152] | 2.97 ± 0.055 | 3.02 ± 0.06 | 2.88 ± 0.055 | 3.03 ± 0.032 |
| NYIINDIKKNNKIKLNI [SRB8] | 3.16 ± 0.096 | 3.1 ± 0.16 | 3.04 ± 0.2 | 3.35 ± 0.2 |
